# Data published in patent publication US12258605B2, “Alkane oxidation by modified hydroxylases” (The California Institute of Technology, priority 2005, dated 2025).
# B1: Wild-type BM-3: wild-type cytochrome P450 BM-3 from Bacillus megaterium, SEQ ID NO:1 (protein, listed as Bacillus megaterium)
# chain: TIKEMPQPKTFGELKNLPLLNTDKPVQALMKIADELGEIFKFEAPGRVTRYLSSQRLIKEACDESRFDKNLSQALKFVRDFAGDGLFTSWTHEKNWKKAHNILLPSFSQQAMKGYHAMMVDIAVQLVQKWERLNADEHIEVPEDMTRLTLDTIGLCGFNYRFNSFYRDQPHPFITSMVRALDEAMNKLQRANPDDPAYDENKRQFQEDIKVMNDLVDKIIADRKASGEQSDDLLTHMLNGKDPETGEPLDDENIRYQIITFLIAGHETTSGLLSFALYFLVKNPHVLQKAAEEAARVLVDPVPSYKQVKQLKYVGMVLNEALRLWPTAPAFSLYAKEDTVLGGEYPLEKGDELMVLIPQLHRDKTIWGDDVEEFRPERFENPSAIPQHAFKPFGNGQRACIGQQFALHEATLVLGMMLKHFDFEDHTNYELDIKETLTLKPEGFVVKAKSKKIPLGGIPSPSTEQSAKKVRKKAENAHNTPLLVLYGSNMGTAEGTARDLADIAMSKGFAPQVATLDSHAGNLPREGAVLIVTASYNGHPPDNAKQFVDWLDQASADEVKGVRYSVFGCGDKNWATTYQKVPAFIDETLAAKGAENIADRGEADASDDFEGTYEEWREHMWSDVAAYFNLDIENSEDNKSTLSLQFVDSAADMPLAKMHGAFSTNVVASKELQQPGSARSTRHLEIELPKEASYQEGDHLGVIPRNYEGIVNRVTARFGLDASQQIRLEAEEEKLAHLPLAKTVSVEELLQYVELQDPVTRTQLRAMAAKTVCPPHKVELEALLEKQAYKEQVLAKRLTMLELLEKYPACEMKFSEFIALLPSIRPRYYSISSSPRVDEKQASITVSVVSGEAWSGYGEYKGIASNYLAELQEGDTITCFISTPQSEFTLPKDPETPLIMVGPGTGVAPFRGFVQARKQLKEQGQSLGEAHLYFGCRSPHEDYLYQEELENAQSEGIITLHTAFSRMPNQPKTYVQHVMEQDGKKLIELLDQGAHFYICGDGSQMAPAVEATLMKSYADVHQVSEADARLWLQQLEEKGRYAKDVWAG
# Tests used:
# [1] = Chloromethane dehalogenation (Purpald detection of formaldehyde); format: biochemical; settings: compared with the other mutants of the study
# Text: The dehalogenation reaction is based on the hydroxylation of the carbon atom carrying the halogen by a spontaneous (base catalyzed) alpha-elimination reaction which leads to the formation of an aldehyde or ketone depending on the starting haloalkane. The expected reaction mechanism for the dehalogenation of a general alpha-haloalkane is described by the scheme:
# To test the feasibility of this approach, chloromethane was chosen as substrate for the dehalogenation reaction. Compared to other haloalkanes, chloromethane (CM) has the advantage to be moderately soluble in water (0.5 g/100 ml) and to lead to formaldehyde as end product of the hydroxylation/alpha-elimination reaction. Formaldehyde can be then readily detected by colorimetric reaction with Purpald as described previously. To test the reaction, two BM-3 mutants from later rounds of random mutagenesis, 35-E1141 and 20-D3, were incubated in the presence of CM and a cofactor regeneration system based on NADP^+, glucose-6-phosphate and glucose-6-phosphate dehydrogenase. Reactions with wild-type P450 BM-3 and without enzyme were included as controls.
# The reaction was repeated in the presence of additional BM-3 mutants, including 1-8H, 1-12G2 and the wild-type P450 BM-3 in which A328 was substituted with valine (BM-3-A328V) (FIG. 27B). […] Wild-type BM-3 was substituted with other amino acid residues at position […].
# The activity of BM-3-A328V on CM and other substrates such as HME, DME, and propane was further investigated by measuring product formation rate, cofactor consumption and coupling efficiency (Table 14). This mutant was also found to be capable to hydroxylate ethane to ethanol, although only for a total of about 5-10 turnovers. In Table 14 “consumption” rates are expressed as nmol NADPH/nmol enzyme/min and “product formation” rates are expressed as nmol product/nmol enzyme/min.
# [2] = Reactions on alkanes, total turnovers (Table 18): propane; format: biochemical; settings: propane (3 C atoms)
# Description: Reactions on alkanes. Reactions with alkanes from pentane to decane were carried out at 3 mL-scale using 100 mM KPi pH 8.0 buffer containing 2% ethanol (to allow alkane solubilization) and purified protein. 2.5 mL KPi buffer were added with 60 μL of 90 mM alkane solution in ethanol (final conc.=1.8 mM), 150 μL enzyme solution at 1 μM (final conc.=50 nM), and 300 μL NADPH regeneration solution (100 units/mL isocitrate dehydrogenase, 70 mg/mL isocitrate, 1.5 mg/ml NADP^+). Vials were sealed and stirred for 24 hours at 4° C. 1 mL-aliquot of the reaction was removed, added with 10 μl internal standard (25 mM 1-bromohexane in ethanol), and extracted with 200 μl chloroform (30 sec vortexing, 1 min centrifugation at 10000 g). The organic phase was removed and analyzed by gas chromatography. Reactions with ethane, propane, and butane were carried out as described for longer alkanes with the only difference that alkane-saturated KPi buffer was used. Propane reactions with variants from HL5 and L9 libraries were performed on 1 mL-scale reaction using 20 nM enzyme to reduce oxygen limitation. Propane and butane reactions were analyzed by direct injection of reaction solution on the GC using 1-pentanol as internal standard. Ethane reaction products were functionalized (see below) and analyzed by GC using 1-butanol as internal standard. All measurements were performed in triplicate.
# Products from alkane reactions were identified and quantified by gas chromatography using authentic standards and calibration curves with internal standards. For the reactions with alkanes from pentane to decane, GC analyses were carried out using a Shimadzu GC-17A gas chromatograph, Agilent HP5 column (30 m×0.32 mm×0.1 μm film), 1 μL injection, FID detector, and the following separation program: 250° C. inlet, 250° C. detector, 50° C. oven for 3 min, 5° C./min gradient to 100° C., 25° C./min gradient to 230° C., and 230° C. for 3 min. For butane and propane (TTN) reactions, GC analyses were carried out using a Hewlett-Packard 5890 Series II Plus gas chromatograph, Supelco SPB-1 column (60 m×0.52 mm×0.5 μm film), 0.5 μL injection, FID detector, and the following separation program: 250° C. inlet, 275° C. detector, 80° C. oven for 2 min, 10° C./min gradient to 110° C., 25° C./min gradient to 275° C., and 275° C. for 2.5 min. For ethane and propane (rate) reactions, analysis of reaction mixtures was carried out by derivatization to alkyl nitrites followed by GC-ECD analysis. For laurate, reaction product analysis was carried out by derivatization with N-methyl-N-trimethylsilylheptafluorobutyramide followed by extraction with hexane. Organic solutions were analyzed by FID-GC.
# Because 35E11 was only marginally stable, the engineering strategy described herein (see below) involved an initial stabilization step followed by iterative rounds of mutagenesis and screening. Random, saturation and site-directed mutagenesis methods were used to create libraries of mutants (FIG. 35), which were screened for activity on a propane surrogate, dimethyl ether. Positives were confirmed in a re-screen and purified for further analysis. Reactions with purified enzymes were carried out in sealed vials in the presence of propane-saturated buffer and a cofactor regeneration system. Improvement in propane total turnover number-moles of propanol produced per mole of enzyme—was a selection criterion for taking a mutant to the next round.
# TTNs for each variant-substrate pair were determined using standardized reaction conditions (identical enzyme and substrate concentration, incubation time, cofactor regeneration system) (Table 18). TTN values were used to assess performance because TTN is a cumulative measure of both catalytic and coupling efficiency and because mutants were selected based on improvement in this property. […]
molecule,measurement,setting,value
B1,total turnover number on CM,[1],no detectable activity
same,% rel. act.,[2]; TTN normalized to the highest value of the variant's series,0.0%
same,TTN,"[2]; total turnovers, standardized reaction conditions",0
